# In patent US20250320284A1 (AC IMMUNE, published 2025):
# Substitutions are numbered along the chain they refer to.
# T1: mouse ASC (mouse, UniProt Q9EPB4 1-193)
# T1 construct: recombinant mASC in ELISA and SPR; endogenous ASC of J774.A1 cells in Western blot and immunofluorescence; also called mASC
# T1 sequence: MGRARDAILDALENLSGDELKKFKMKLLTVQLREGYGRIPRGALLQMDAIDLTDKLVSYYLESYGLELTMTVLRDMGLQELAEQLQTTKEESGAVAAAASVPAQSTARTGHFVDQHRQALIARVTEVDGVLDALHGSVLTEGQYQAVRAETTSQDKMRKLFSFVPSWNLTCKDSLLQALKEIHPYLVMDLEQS
# T2: CARD domain of human ASC (human, UniProt Q9ULZ3 107-195)
# T2 construct: biotinylated in BLI; also called hCARD; human CARD
# T2 sequence: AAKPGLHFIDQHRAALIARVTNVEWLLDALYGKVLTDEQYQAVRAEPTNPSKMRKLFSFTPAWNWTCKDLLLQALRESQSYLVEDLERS
# B1: ACI-8016-14G5B8-AB1 (antibody, V domains shown)
# VH: EVQLQESGPELVKPGSSVKISCKASGYTFADHYMNWVKQSHGKSLEWIGDINPNNGGSVYNQKFKGKATLTVDKSSSTAYMELRSLTSEDSAVYFCARRRAHYYDGPYFDYWGQGTTLTVSS
# VL: DIVMTQSQKFMSTSVGDRVSLTCKASQIVGTAVAWYQQKPGQSPKLLIYSASIRYTGVPDRFTGSGSGTDFTLTISNMQSEDLADYFCQQYSNYPTFGAGTKLELK
# notes: also called 936.14G5B8
# B2: ACI-8016-402H11C9-Ab1 (antibody, V domains shown)
# VH: QVQLQQSGAELARPGASVKMSCKASGYTFTTYTMHWVKQRPGQGLEWIGYINPSSGYTYYNQNFKDKATLTADKSSSTAYMQLSNLASDDSAVYYCALGGNPAWFAYWGQGTLVTVSA
# VL: DIVLTQSPATLSVTPGDSVSLSCRASQSIGNNLHWYQHKSHESPRLLIKYASQSISGIPSRFSGSESGTDFTLSINSVETEDFGIYFCQQSKSWPWTFGGGTKLEIK
# B3: ACI-8016-7G3B5-AB1 (antibody, V domains shown)
# VH: EVQLQQSVAELVRPGASVKLSCTASGFNIKNTYMHWVKQRPEQGLEWIGRIDPANGNTKYVPKFQGKATITADTSSKTAYLQLSSLTSEDTAIYYCTRWGFDKDGVVYAMDYWGQGTSVTVSS
# VL: B2 VL with I2V, G30Y, H38Q, I48V, E66G, I85M, K92N, W96L, G100A, I106L
# notes: also called 936.7G3B5
# B4: ACI-8016-417E12A8-AB1 (antibody, V domains shown)
# VH: QVQLQQPGAELVRPGASVILSCKASGYTFTSSWITWVKQRPGQGLEWIGNIYPSDSYTNSNQKFKDKATLTVDKSSSTAYMHLISPTSEDSAVYYCTRKDFVYDAWYFDVWGAGTTVTVSS
# VL: DIVMTQSQKFMSTSVGDRVTVTCKASQNVGTNVAWYQQRPGQSPKPLIYSASYRNSGVPDRFTGSGSGTDFTLTITNVQSEDLAEYFCQQYNNYPLTFGAGTKLELK
# B5: ACI-8016-2516A8C6-AB1 (antibody, V domains shown)
# VH: QVQLQQSGAELARPGASVKLSCKASGHTFTSYGISWVKQRTGQGLEWIGKIYPRSGNTYYDEKFKGKATLTADKPSTTAYMELRSLTSEDSAVYFCATRDYWGQGTTLTVSS
# VL: QIVLTQSPVIMSASPGEKVTITCSASSSVSYMYWFQQKPGTSPKFWIYSTSNLASGVPARFSGSGSGTSYSLTISRMEAEDAATYYCQQRSRYPWTFGGGTKLEIK
# B6: ACI-8016-29C5E11-AB1 (antibody, V domains shown)
# VH: EVQLQQSGAELVRPGSSVKMSCRTSGYTFTNNGITWVKQRPGQGLEWIGYIYVGNGYTEYNEKFKDKATLTSDTASSTVYMQLNSLTSEDSAIYFCARLDRGRALDYWAQGTTLTVSS
# VL: DIVLTQSPASLAVSLGQRATISCRASKSVSSSAYSYMHWYQQKPGQPPKLLIHLASNLESGVPARFSGSGSGTDFTLNIHPVEEEDAATYYCQHSWELPYTFGGGTKLEIK
# notes: also called 936.29C5E11
# B7: ACI-8016-11A3F3-AB1 (antibody, V domains shown)
# VH: QVQLQQSGAELARPGTSVKLSCKASGYTFISFGLSWVKQRTGQGLEWIGEIYPRIDNPYYNEKFKGKAILTADKSSSTAYMELRSLTSEDSAVYFCARYFTKGNYFDYWGQGTTLTVSS
# VL: DIQMTQSPASLAASVGETVTITCRASENIYYSLAWYQQKQGKSPQVLIYYANSLEDGVPSRFSGSGSGTQYSLKINSMQPEDTATYFCKQAYDVPFTFGTGTKLELK
# notes: also called 936.11A3F3
# B8: ACI-8016-407E10A9-AB1 (antibody, V domains shown)
# VH: EVQLVESGGGFVKPGGSLKLSCAASGFTFSNYAMSWVRQTPEKRLEWVATIYSGGIFTYYPDSVKGRFTISRDSAKNTLYLQMTSLRSEDTAIYYCARLGGSYWGQGTLVTVSA
# VL: QAVVTQESALTTSPGETVTLTCRSSTGAVTTNNYANWVQEKPDHFFTGLIGGTDNRPPGVPARFSGSLIGDKAALTITGAQTEDEAIYFCALWYNNHWVFGGGTKLTVL
# B9: ACI-8016-203G8B10-AB1 (antibody, V domains shown)
# VH: EVKLEESGGGLVHPGGSMKLSCVASGFTFSNYWMNWVRQSPEKGLEWVAQIRLKSENYATHSAESVKGRLTISRDDSKSSVYLQMNNLRAEDTGIYYCLAGWGLDYWGQGTTLTVSS
# VL: DIVMTQAAFSNPVTLGTSASISCRSSKTLLHSDGFTYLYWYLQRPGQSPQLLIHRVSNLASGVPNRFSGSESGTDFTLRISRVEPEDVGVYYCAQMLELPLTFGSGTKLELK
# B10: ACI-8016-27A1G4-AB1 (antibody, V domains shown)
# VH: QVQLQQSDAELVKPGASVKISCKVSGYTFTDHTIHWMRQRPEQGLEWIGYIYPGDASSYYNEKFKGKATLTADQSSNTAYIQVNSLTSEDSAVYFCARPLYSYASYYWFAYWGQGTLVTVSA
# VL: DIQMNQSPSSLSASLGDTITITCHASQNINVWLTWYQQKPGNIPKLLIYKASNLHTDVPSRFSGSGSGTGFTLTISSLQPEDIATYYCQQGQSYPLTFGGGTKLEIK
# notes: also called 936.27A1G4
# B11: ACI-8016-421B10C12D2-AB1 (antibody, V domains shown)
# VH: EVQLQQSGADLVKPGASVKLSCTASGFNIEDTYIHWVKQRPARGLEWVGRIDPANGNTDYDPKFQGKATMITDTSSNTVYLQVSSLTSEDTAVYFCGRHDGYDMDYWGQGTSVTVSS
# VL: DIVMSQSPSSLAVSAGEKVTMSCQSSQSLLNGRTRRNYLAWYQQKPGQSPKLLIYWASTRKSGVPDRFTGSGSGTDFTLTITSVQAEDLAVYYCKQSYNLVTFGAGTKLELK
# Target: T3, human ASC (apoptosis associated speck-like protein containing a caspase-recruitment domain) (human, UniProt Q9ULZ3 1-195)
# T3 construct: recombinant hASC in ELISA and SPR; endogenous ASC (cytoplasmic or specks) in Western blot and immunofluorescence; also called hASC; PYCARD
# Assay: ELISA, coated hASC;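 note: antibody binding to plate-coated recombinant human ASC, read as phosphatase substrate absorbance, EC50 from four-parameter variable-slope fit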
# Experimental: (§1) Proteins and peptides were diluted in PBS. Final concentration of 3 μg/mL for human and mouse ASC proteins and 2 μg/mL for PYD and CARD domain of hASC was used to coat ELISA plates (MaxiSorp, Nunc) overnight (ON) at 4° C., 50 μL/well. After washing four times with PBS/0.05% Tween-20 and blocking for one hour at 37° C. […] After washing, plates were incubated two hours at RT with 1 mg/mL of phosphatase substrate pNPp (Sigma, cat. n° S0942). […] The absorbance signal was read at 405 nm wavelength using a plate reader (Tecan Infinity M200). EC50 was calculated using GraphPad Prism 8 and a non-constrain variable slope 4 parameter fit.
# (§2) The binding potency of a mAb to human ASC (hASC), mouse ASC (mASC), human PYD (hPYD) and human CARD (hCARD) was determined by ELISA.
row,EC50,Binder
1,0.09 nM,B1
2,0.06 nM,B2
3,0.19 nM,B3
4,0.07 nM,B4
5,0.26 nM,B5
6,0.16 nM,B6
7,0.11 nM,B7
8,0.06 nM,B8
9,0.09 nM,B9
10,0.15 nM,B10
11,0.06 nM,B11

# Target: T1, mouse ASC
# Assay: ELISA, coated mASC
EC50,binding result,Binder
0.16 nM,,B1
,no binding,B2
0.17 nM,,B3
0.26 nM,,B5
0.14 nM,,B6
0.63 nM,,B7
,no binding,B8
,no binding,B9
0.11 nM,,B10

# Target: T3, human ASC (apoptosis associated …)
# Assay: SPR affinity mode, mAb captured;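 note: Single-cycle SPR kinetics with mAbs captured on goat anti-mouse antibody, double-referenced against blank flow cell and buffer cycle, fitted by a 1:1 kinetic model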
# Experimental: ASC mAb Capture and Binding Kinetics: Each cycle started with non-covalent capture of ASC mAbs (listed in Table 1) which were diluted in running buffer to a final concentration of 2 μg/mL and injected for 90 sec with a flow rate of 10 μL/min. Eight mAbs were captured on flow-cell 2 at the same time, leaving flow-cell 1 as a blank control. Capture levels were evaluated following a 120 sec stabilization period after each mAb injection and ranged from 300 to 460 RU (see Table 3).
# Binding affinity of mAbs for hASC and mASC was assessed using a single-cycle kinetics method. Prior to analysis, two startup cycles were run. […] Regeneration of the goat anti-mouse antibody was achieved by injection of 10 mM glycine-HCl pH 1.7 at a flow rate of 10 μL/min for 120 sec, followed by a stabilization period of 300 sec. For blank injections running buffer was injected under the same conditions. Results obtained from single-cycle kinetics were double-referenced using the blank flow-cell 1 and a buffer cycle and evaluated using the Biacore 8K evaluation software with 1:1 kinetic fit model (global Rmax). The following kinetic parameters were obtained: Association rate constant (ka), dissociation rate constant (kd), affinity constant (KD) and saturation response (Rmax). Fitting was rejected if less than three curves could be fit.
# (§3) Obtained sensorgrams were fit with a 1:1 kinetic fit model. mAbs with a signal below 20 RU at the highest concentration were considered as “low binders”. Responses with no concentration dependence or with signal below 5 RU at the highest concentration were considered as “non-binders”.
Kd,koff,kon,Binder
0.55 nM,0.00019 s⁻¹,360000 M⁻¹ s⁻¹,B2
0.12 nM,2.9e-05 s⁻¹,250000 M⁻¹ s⁻¹,B4
0.11 nM,1.5e-05 s⁻¹,130000 M⁻¹ s⁻¹,B8
1.34 nM,0.00017 s⁻¹,130000 M⁻¹ s⁻¹,B9
0.36 nM,0.00017 s⁻¹,470000 M⁻¹ s⁻¹,B11

# Target: T3, human ASC (apoptosis associated …)
# Assay: SPR avidity mode, ASC immobilized;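 note: Single-cycle SPR kinetics on Biacore T200, antibodies injected at 1.2–100 nM (3-fold steps), 300 s association, 900 s dissociation, double-referenced, 1:1 kinetic model fit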
# Experimental: Two successive regenerations of 10 mM glycine-HCl pH 1.7 for 30 sec were conducted to remove any non-covalently bound ASC.
# Binding Kinetics: Single-cycle kinetics were performed with a surface regeneration between each cycle. Prior to analysis, two Startup Cycles were run. ASC mAbs were injected in increasing concentration from 1.2-100 nM, prepared from a 3-fold serial dilution in running buffer, with a contact time of 300 sec and a dissociation time of 900 sec at a flow rate of 30 μL/min. Each successive mAb was preceded by a regeneration step using 10 mM glycine-HCl pH 1.7 with a contact time of 30 sec at 10 μL/min, followed by a stabilization period of 300 sec. Results obtained from single-cycle kinetics were double-referenced using the blank Fc 1 and a buffer cycle and evaluated by Biacore T200 evaluation software with a 1:1 kinetic fit model (with RI and global Rmax). The following kinetic parameters were obtained: Association rate constant (ka), dissociation rate constant (kd), affinity constant (KD) and saturation response (Rmax). Fitting was rejected if less than three curves could be fit. The commercial antibodies F-9 (anti-hASC) and 2EI-7 (anti-mASC) were used as controls at the start and end of the experiment.
# as §3
Kd,koff,kon,Binder
10.5 nM,,,B2
< 0.01 nM,4.1e-07 s⁻¹,110000 M⁻¹ s⁻¹,B4
< 0.01 nM,5.6e-07 s⁻¹,110000 M⁻¹ s⁻¹,B8
0.35 nM,2.9e-05 s⁻¹,83000 M⁻¹ s⁻¹,B9
< 0.01 nM,2.2e-07 s⁻¹,190000 M⁻¹ s⁻¹,B11

# Target: T4, PYD domain of human ASC (human, UniProt Q9ULZ3 1-91, limits assumed)
# T4 construct: biotinylated in BLI; His/MBP-tagged in the alanine ELISA; also called hPYD; human PYD
# Assay: ELISA, coated hPYD;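 note: monoclonal antibody binding to plate-coated human ASC PYD measured by ELISA, with a phosphatase substrate absorbance read-out and EC50 from a variable slope curve fit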
# Experimental: as §1, §2
# T4 sequence (Q9ULZ3 1-91 limits assumed): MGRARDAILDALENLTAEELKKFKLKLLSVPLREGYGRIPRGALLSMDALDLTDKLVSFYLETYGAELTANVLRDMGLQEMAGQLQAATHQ
binding result,EC50,Binder
no binding,,B1
no binding,,B2
,0.16 nM,B3
,0.06 nM,B4
,0.16 nM,B5
no binding,,B6
no binding,,B7
no binding,,B8
,0.08 nM,B9
no binding,,B10
,0.07 nM,B11

# Target: T2, CARD domain of human ASC
# Assay: ELISA, coated hCARD
# Experimental: as §1, §2
EC50,binding result,Binder
0.17 nM,,B1
0.06 nM,,B2
,no binding,B3
,no binding,B4
,no binding,B5
0.14 nM,,B6
0.12 nM,,B7
0.07 nM,,B8
,no binding,B9
0.13 nM,,B10
,no binding,B11
